B1: P533 (peptide)
peptide: HSDAVFTEQYTXLRXQXAAXXYLQSIXXGGPSSGAPPPS
modifications: here or on the partner: C6-HSDAVFTEQY(OMe)TOrnLRAibQK(WPEG40K)AAAibOrnYLQSIOrnOrnGGPSSGAPPPS-NH2

What was measured:
[1] = target: T1, human VPAC2 receptor (human), P41587; assay: filter binding, VPAC2 cell membranes, displacement of 125I-VIP; conditions: remark: other sources report otherwise
T1 chain: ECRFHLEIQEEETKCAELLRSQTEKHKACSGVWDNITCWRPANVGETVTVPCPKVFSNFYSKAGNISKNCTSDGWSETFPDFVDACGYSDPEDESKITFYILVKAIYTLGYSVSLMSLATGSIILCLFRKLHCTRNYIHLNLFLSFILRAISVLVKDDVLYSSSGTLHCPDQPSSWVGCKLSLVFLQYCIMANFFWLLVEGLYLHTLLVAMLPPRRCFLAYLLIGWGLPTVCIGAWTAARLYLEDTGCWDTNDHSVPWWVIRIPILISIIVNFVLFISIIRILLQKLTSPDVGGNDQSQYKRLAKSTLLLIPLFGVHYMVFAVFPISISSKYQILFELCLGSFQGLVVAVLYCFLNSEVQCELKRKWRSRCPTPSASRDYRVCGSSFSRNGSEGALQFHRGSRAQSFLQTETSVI

[2] = target: T2, rat VPAC1 receptor (rat, UniProt P30083 31-459); assay: cell-based or functional assay
T2 sequence (looked up): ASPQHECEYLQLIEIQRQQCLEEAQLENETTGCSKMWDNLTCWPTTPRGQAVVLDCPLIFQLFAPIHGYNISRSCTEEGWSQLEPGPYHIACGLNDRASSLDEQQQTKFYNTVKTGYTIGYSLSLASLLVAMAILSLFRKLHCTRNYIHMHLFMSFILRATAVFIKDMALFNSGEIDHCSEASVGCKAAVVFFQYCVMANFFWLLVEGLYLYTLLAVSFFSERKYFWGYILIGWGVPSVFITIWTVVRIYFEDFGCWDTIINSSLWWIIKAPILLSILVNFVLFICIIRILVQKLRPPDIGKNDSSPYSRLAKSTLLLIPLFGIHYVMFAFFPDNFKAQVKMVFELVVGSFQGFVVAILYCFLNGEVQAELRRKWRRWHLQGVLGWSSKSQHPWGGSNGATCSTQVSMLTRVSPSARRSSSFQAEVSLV

[3] = target: T3, rat VPAC2 receptor (rat, UniProt P35000 23-437); assay: cell-based or functional assay
T3 sequence (looked up): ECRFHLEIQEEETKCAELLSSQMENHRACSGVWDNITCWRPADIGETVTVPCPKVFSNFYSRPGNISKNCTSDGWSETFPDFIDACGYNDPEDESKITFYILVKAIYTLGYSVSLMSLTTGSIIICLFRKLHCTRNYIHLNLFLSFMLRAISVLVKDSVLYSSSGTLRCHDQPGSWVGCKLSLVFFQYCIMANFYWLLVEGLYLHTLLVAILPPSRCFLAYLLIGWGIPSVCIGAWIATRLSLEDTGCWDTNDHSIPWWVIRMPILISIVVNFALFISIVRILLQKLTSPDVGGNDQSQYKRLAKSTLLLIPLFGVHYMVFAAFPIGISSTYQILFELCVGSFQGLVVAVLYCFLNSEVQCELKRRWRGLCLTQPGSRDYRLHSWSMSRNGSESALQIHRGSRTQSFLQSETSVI

[4] = target: T4, human VPAC2 receptor (human, UniProt P41587 24-438); assay: filter binding, VPAC2 cell membranes, displacement of 125I-VIP
T4 construct: whole, on cells; CHO-S cell line stably expressing human VPAC2 (cAMP assays)
T4 sequence (looked up): T1 chain
Procedure: Binding assays: Membrane prepared from a stable VPAC2 cell line (see Example 3) or from cells transiently transfected with human VPAC1 or PAC1 are used.
The assay plate is filled with 25 μL assay buffer, 25 μL membranes (2.5 μg) suspended in assay buffer, 25 μL agonist in assay buffer, and 25 μL tracer (about 40000 cpm) in assay buffer. The filled plate is incubated for 1 hour with shaking.
The transfer from assay plate to filter plate is conducted. The blocking buffer is aspirated by vacuum filtration and washed two times with flush buffer. 90 μL is transferred from the assay plate to the filter plate. The 90 μL transferred from assay plate is aspirated and washed three times with 200 μL flush buffer. The plastic support is removed. It is dried for 1 hour at 60° C. 30 μL Microscint is added. The count is performed.

[5] = target: T4, human VPAC2 receptor; assay: cell-based or functional assay

Binder | IC50 [1] [nM] | Rat VPAC1 Receptor: DiscoveRx: (EC50; nM) [2] [nM] | Rat VPAC2 Receptor: DiscoveRx: (EC50; nM) [3] [nM] | IC50 [4] [nM] | Human VPAC2 Receptor: Alphascreen (EC50; nM) [5] [nM]
B1 | 959 |  |  |  | 
HSDAVFTEQYTXLRXQVAAXCYLQSIXXGGPSSGAPPPS (C6-HSDAVFTEQY(OMe)TOrnLRAibQVAAAibC(PEG40K)YLQSIOrnOrnGGPSSGAPPPS-NH2) [P460] |  | > 1000 | 1160 | 914 | 430
